Drawing on article PMC3368264, this text covers stoichiometry N for 1 substance.

In the test the target is Leishmania major N5,N10-methylenetetrahydrofolate dehydrogenase/cyclohydrolase (Leishmania major (Friedlin strain)). Put plainly: SEC; Superdex 200 26/60 in buffer A (50 mM Tris-HCl, 250 mM NaCl, 20 mM imidazole, pH 7.5); main peak at approximately 65 kDa (subunit 31.9 kDa). In general terms: Size exclusion chromatography separates by hydrodynamic size, large species first.

A word on the stoichiometry N: it is a count of units in the complex or per binding partner. Take “Leishmania major N5,N10-methylenetetrahydrofolate dehydrogenase/cyclohydrolase (enzyme)”: the stoichiometry N stood at 2.
